Here are results for 17 molecules from patent US20180086841A1 (Merck Sharp & Dohme, published 2018).

B1: hCD27.131A VH9VL9 huIgG1 (antibody, V domains shown)
VH: EIQLVQSGAEVKKPGASVKVSCKASGYTFTNYGMNWVRQAPGQGLKWMGWINTNTGEPTYAEEFKGRFTFTLDTSASTAYMELSSLRSEDTAVYYCAREGDAMDYWGQGTTVTVSS
VL: DIQLTQSPSTLSASVGDRVTITCSASSSVSYMHWYQQKPGKAPKRWIYDTSKLASGVPARFSGSGSGTDYTLTISSLQPEDFATYYCQQWNSYPFTFGQGTKLEIK
B2: hCD27.131A VH6VL7 huIgG1 (antibody, V domains shown)
VH: B1 VH with R38K, A76I
VL: EIVLTQSPATLSLSPGERATLSCSASSSVSYMHWYQQKPGQAPKRWIYDTSKLASGVPARFSGSGSGTSYSLTISSLEPEDFATYYCQQWNSYPFTFGQGTKLEIK
B3: hCD27.131A VH7VL7 huIgG1 (antibody, V domains shown)
VH: B1 VH with V20I, R38K, S77T, M81L, L83I
VL: B2 VL
B4: hCD27.131A VH7VL6 huIgG1 (antibody, V domains shown)
VH: B1 VH with V20I, R38K, S77T, M81L, L83I
VL: B2 VL with S69D, T84V
B5: hCD27.131A VH6VL8 huIgG1 (antibody, V domains shown)
VH: B1 VH with R38K, A76I
VL: B2 VL with L13A, A19V, S69D, L77M, T84V
B6: Mouse Human Chimera CD27 131A-hIgG1 (antibody, V domains shown)
VH: QIQLVQSGPELKKPGETVKISCKASGYTFTNYGMNWVKQAPGKGLKWMGWINTNTGEPTYAEEFKGRFAFSLETSATTAYLQINNLKNEDTATYFCAREGDAMDYWGQGTSVTVSS
VL: QIVLTQSPAIMSASPGEKVTMTCSASSSVSYMHWYQQKSGTSPKRWIYDTSKLASGVPARFSGSGSGTSYSLTISSMEAEDAATYYCQQWNSYPFTFGSGTKLEIK
notes: also called chimeric mouse-human hCD27.131A huIgG1
B7: hCD27.131A VH9VL9 huIgG4 (antibody, V domains shown)
VH: B1 VH
VL: B1 VL
B8: hCD27.131A VH8VL6 huIgG4 (antibody, V domains shown)
VH: B1 VH with R38K, A76I, S88N
VL: B2 VL with S69D, T84V
B9: hCD27.131A VH7VL6 huIgG4 (antibody, V domains shown)
VH: B1 VH with V20I, R38K, S77T, M81L, L83I
VL: B2 VL with S69D, T84V
B10: hCD27.131A VH8VL7 huIgG4 (antibody, V domains shown)
VH: B1 VH with R38K, A76I, S88N
VL: B2 VL
B11: hCD27.131A VH8VL8 huIgG4 (antibody, V domains shown)
VH: B1 VH with R38K, A76I, S88N
VL: B2 VL with L13A, A19V, S69D, L77M, T84V
B12: hCD27.131A VH7VL7 huIgG4 (antibody, V domains shown)
VH: B1 VH with V20I, R38K, S77T, M81L, L83I
VL: B2 VL
B13: hCD27.131A VH7VL8 huIgG4 (antibody, V domains shown)
VH: B1 VH with V20I, R38K, S77T, M81L, L83I
VL: B2 VL with L13A, A19V, S69D, L77M, T84V
B14: hCD27.131A VH6VL7 huIgG4 (antibody, V domains shown)
VH: B1 VH with R38K, A76I
VL: B2 VL
B15: hCD27.131A VH6VL8 huIgG4 (antibody, V domains shown)
VH: B1 VH with R38K, A76I
VL: B2 VL with L13A, A19V, S69D, L77M, T84V
B16: hCD27.131A VH6VL6 huIgG4 (antibody, V domains shown)
VH: B1 VH with R38K, A76I
VL: B2 VL with S69D, T84V
B17: 131A chimera huIgG4 (antibody, V domains shown)
VH: B6 VH
VL: B6 VL
notes: also called chimeric mouse-human hCD27.131A huIgG4

Positions count from the first letter of the chain named.

For one assay, the target named is T1, human CD27 (human, UniProt P26842 21-260).
T1 construct: also called hCD27; HsCD27
The assay can be described thus: flow cytometry MFI, CD4+ T cells of human PBMC, N=2 donors. On the technique in general: Flow cytometry measures light scatter and fluorescence of single cells or particles in a stream.
Method: (§1) Labeled cells were washed by re-suspending them in 150 ul of staining buffer (SB) followed by centrifugation at 300 g for 5 minutes. Cells were then resuspended in 100 ul of SB containing primary anti-CD27 antibodies at various concentrations, incubated in the dark at 4° C. for 30 minutes, followed by washing and centrifugation steps as previously described. […] Cells were incubated for 30 minutes at 4° C. in the dark, followed by washing and centrifugation steps. Next, cells were stained with a cocktail of phenotypic antibodies for surface markers (CD3, CD4, CD8, CD11b) and incubated for 30 minutes at 4° C. in the dark, followed by washing and centrifugation steps. […] Samples were acquired in a LSR-Fortessa flow cytometer (BD Biosciences) using the high throughput sampler and data analyzed by FlowJo software (Tree Star Inc).
A word on the EC50: it is the concentration giving half of the maximal effect. Higher therefore signals lower potency in that assay. Take B1: it took 0.0774 nM to reach a half-maximal effect (EC50).

In the case of B2, the EC50 stood at 0.123 nM.

Take B3: the concentration giving a half-maximal response (EC50) amounted to 0.113 nM.

B4: the midpoint of the response, the EC50, lay at 0.128 nM.

For B5, the EC50 was found to be 0.126 nM.

In turn, B6 displayed an EC50 of 0.0664 nM.

Another assay concerns the target T1, human CD27. The assay can be described thus: cell ELISA on transfected CHO cells. In general terms: ELISA stands for enzyme-linked immunosorbent assay.
Method: (§2) Purified antibodies were assayed for binding to human CD27 expressing CHOK1 cells using a cell-based ELISA format. Human CD27 expressing CHOK1 cells were plated in 96-well tissue-culture plates in 50 μl of DMEM/F12, 10% BCS (bovine calf serum) (CHO-K1 media). Cells were plated at either 2×10⁴ cells/well two days prior to the assay or 4×10⁴ cells/well one day prior to the assay. Media was removed from the wells prior to the assay followed by incubation of mAb in 100 μL fresh culture medium at a starting concentration of 10 μg/mL and 8 step 1:5 serial dilutions (hIgG4 antibodies) or starting concentration of 50 μg/mL and 8 step 1:5 serial dilutions (hIgG1 antibodies). The antibodies were incubated for 30-60 minutes at room temperature and washed 3 times with PBS/0.05% Tween 20 using a cell ELISA washing protocol on the Biotek EL405x Select CW plate washer.
In the case of B1, the “fold EC50 against 131AVH6VL6-hIgG1” value was not above 2 fold.

As to B7, the “fold EC50 against 131AVH6VL6-hIgG1” value was not above 2 fold.

For the molecule B8, the “fold EC50 against 131AVH6VL6-hIgG1” value is not above 2 fold.

For the molecule B9, the “fold EC50 against 131AVH6VL6-hIgG1” value was not above 2 fold.

Turning to B10, the “fold EC50 against 131AVH6VL6-hIgG1” value is not above 2 fold.

On to B11, for which the “fold EC50 against 131AVH6VL6-hIgG1” value was not above 2 fold.

For B12, the “fold EC50 against 131AVH6VL6-hIgG1” value was not above 2 fold.

As to B2, the “fold EC50 against 131AVH6VL6-hIgG1” value was not above 2 fold.

With B3, the “fold EC50 against 131AVH6VL6-hIgG1” value is not above 2 fold.

For B4, the “fold EC50 against 131AVH6VL6-hIgG1” value is not above 2 fold.

Consider B13, for which the “fold EC50 against 131AVH6VL6-hIgG1” value was not above 2 fold.

As to B5, the “fold EC50 against 131AVH6VL6-hIgG1” value is not above 2 fold.

With B14, the “fold EC50 against 131AVH6VL6-hIgG1” value was not above 2 fold.

Take B15: the “fold EC50 against 131AVH6VL6-hIgG1” value was not above 2 fold.

For the next assay, the target named is T2, His9G-tagged human CD27 recombinant protein (human, UniProt P26842 21-191).
T2 construct: In-house, transient transfection of HEK293 cells; also called Human CD27/His
The assay can be described thus: SPR Biacore 4000, antibody captured on anti-human Fc, His9G-tagged CD27 injected, 1:1 fit.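 Note: Double-referenced SPR (blank anti-Fc surface and buffer injection subtracted), KD derived from association and dissociation rate constants, with human and cynomolgus CD27 as analytes.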 Background: Surface plasmon resonance follows binding to a sensor surface in real time, without labels.
From the text: (§3) Flow cell spots modified with anti-human Fc antibody but lacking CD27 antibodies were used as reference. […] The chip surface was regenerated with a 30 second injection of 3M MgCl₂ after each injection cycle.
(§4) Data were double referenced by subtracting the response from a blank surface and that from a buffer injection and used for analyzing the rate constant of association (kₐ) and dissociation (kd), and the equilibrium dissociation constant KD. The resulting data sets were fitted with a Langmuir 1:1 binding model using the Biacore 4000 BIAevaluation software, version 1.0 (GE/Biacore).
As usually defined, the Kd is the free concentration of one partner at which half of the binding sites on the other are occupied at equilibrium, for simple one-to-one binding. With B1, the dissociation constant (Kd) was determined as 62.2 nM.

For B16, the Kd was 168 nM.

As to B7, the dissociation constant Kd worked out at 104 nM.

B8: the dissociation constant Kd came to 132 nM.

Consider B9, for which the Kd worked out at 65.7 nM.

As to B10, the Kd amounted to 89.3 nM.

B11: the Kd was found to be 110 nM.

As to B12, the equilibrium dissociation constant (Kd) was 82.4 nM.

For B2, the Kd worked out at 71.7 nM.

Take B3: the dissociation constant Kd turned out to be 38.9 nM.

Regarding B4, the Kd was determined as 41.3 nM.

In the case of B13, the Kd was found to be 58.5 nM.

As to B5, the Kd was found to be 68.2 nM.

As to B14, the Kd worked out at 108 nM.

B15: the Kd is 99.1 nM.

With B17, the Kd turned out to be 43.4 nM.

As to B6, the equilibrium dissociation constant (Kd) worked out at 29.2 nM.

The next assay addresses T3, His9G-tagged cynomolgus CD27 recombinant protein (cynomolgus, limits assumed).
T3 construct: In-house, transient transfection of HEK293 cells; also called Cyno CD27/His
T3 chain: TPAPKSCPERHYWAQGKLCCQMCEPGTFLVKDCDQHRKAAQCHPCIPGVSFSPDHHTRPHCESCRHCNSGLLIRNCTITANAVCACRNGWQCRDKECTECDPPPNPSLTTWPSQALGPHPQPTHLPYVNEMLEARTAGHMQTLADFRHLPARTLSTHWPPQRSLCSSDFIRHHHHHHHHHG
The assay is described as above.
From the text: as §3, §4
As to B1, the Kd was determined as 105 nM.

Turning to B16, the dissociation constant (Kd) stood at 73 nM.

As to B7, the Kd came to 72.9 nM.

Turning to B8, the Kd was 59.7 nM.

In the case of B9, the dissociation constant (Kd) is 58.2 nM.

Consider B10, for which the equilibrium dissociation constant (Kd) was 76.8 nM.

As for B11, the Kd worked out at 96.7 nM.

B12: the dissociation constant (Kd) was 36.7 nM.

As for B2, the Kd is 41.9 nM.

Regarding B3, the dissociation constant Kd came out at 31.7 nM.

In the case of B4, the Kd was found to be 34.8 nM.

Regarding B13, the dissociation constant (Kd) is 40.1 nM.

For B5, the Kd worked out at 56.5 nM.

With B14, the dissociation constant (Kd) was 82 nM.

As to B15, the Kd came out at 55.2 nM.

B17: the Kd amounted to 31.2 nM.

With B6, the dissociation constant Kd worked out at 40.4 nM.

A further assay deals with T1, human CD27. The assay can be described thus: flow cytometry on primary T cells.
Take B1: the “EC50 relative to 131AVH6VL6-hIgG1” value was ≤ 10 % above the EC50 of 131AVH6VL6-hIgG1.

For the molecule B2, the “EC50 relative to 131AVH6VL6-hIgG1” value is ≤ 10 % above the EC50 of 131AVH6VL6-hIgG1.

With B3, the “EC50 relative to 131AVH6VL6-hIgG1” value was ≤ 10 % above the EC50 of 131AVH6VL6-hIgG1.

On to B4, for which the “EC50 relative to 131AVH6VL6-hIgG1” value is ≤ 10 % above the EC50 of 131AVH6VL6-hIgG1.

In the case of B5, the “EC50 relative to 131AVH6VL6-hIgG1” value was ≤ 10 % above the EC50 of 131AVH6VL6-hIgG1.

In a further assay the target is T1, human CD27. Put plainly: flow cytometry MFI, CD8+ T cells of human PBMC, N=2 donors.
Method: as §1
As to B1, the EC50 came out at 0.0721 nM.

B2 gave a 50% effective concentration (EC50) of 0.11 nM.

Molecule B3 came in with an EC50 of 0.111 nM.

As to B4, the response was half-maximal at 0.127 nM (EC50).

B5 came in with a concentration for a half-maximal effect (EC50) of 0.124 nM.

As for B6, the concentration for a half-maximal effect (EC50) amounted to 0.0649 nM.

The next assay concerns the target T1, human CD27. Put plainly: cell ELISA on human CD27 CHOK1 cells, hIgG1.
Method: as §2
B1 yielded an EC50 of 0.111 nM.

In turn, B2 had an EC50 of 0.13 nM.

In turn, B3 yielded an EC50 of 0.207 nM.

B4 registered an EC50 of 0.162 nM.

Regarding B5, a half-maximal response (EC50) required 0.131 nM.

The target in another assay is T1, human CD27. The assay can be described thus: cell ELISA on human CD27 CHOK1 cells, hIgG4.
Method: as §2
The molecule B16 gave a 50% effective concentration (EC50) of 0.101 nM.

For the molecule B7, the EC50 is 0.13 nM.

B8 gave a concentration giving a half-maximal response (EC50) of 0.097 nM.

B9 showed a concentration for a half-maximal effect (EC50) of 0.042 nM.

The molecule B10 had a concentration giving a half-maximal response (EC50) of 0.088 nM.

The molecule B11 gave a concentration for a half-maximal effect (EC50) of 0.129 nM.

Molecule B12 gave a half-maximal effective concentration (EC50) of 0.084 nM.

In turn, B13 registered an EC50 of 0.086 nM.

On to B14, for which the EC50 is 0.132 nM.

As to B15, the 50% effective concentration (EC50) was 0.103 nM.
